These results are taken from patent US20070032439, “Tarp promoter and uses thereof” (published 2007).

The target in data set [1] is T1, Androgen receptor (AR), full-length (Homo sapiens, UniProt P10275 P10275:1-920). Kind of data set: EMSA; 10 nM R1881, 30 mM KCl, 2 mM MgCl2, pH 7.5, poly(dI-dC). Particulars: tags: none stated; cDNA from pSVAR0 in pBluescript II SK+, T7/wheat germ extract (Promega); chain copies: 2; label: 32P 5' end. The source says: (§1) Double-stranded oligonucleotides constituting either the wild-type ARE or a mutated version thereof at −186, relative to the TARP transcription initiation site, were 5′end labeled with […] using T4 polynucleotide kinase (Amersham Bioscience, Piscataway, N.J.). The wild-type oligonucleotide sequence was […] and includes the ARE[−186] sequence of the TARP promoter. The corresponding oligonucleotide sequence with the mutated version of the ARE[−186] was […]. Full-length human AR cDNA was subcloned from PSVAR0 (Brinkmann et al., J. Steroid Biochem., 34: 307-310, 1989) to pBluescript II SK+ (Stratagene). In vitro-translated human AR was produced by transcription-coupled translation by using T7 RNA polymerase and wheat germ extract (Promega). Translated AR was incubated with either wild-type ARE[−186] probe or mutated ARE[−186] probe in a buffer containing 20 mM HEPES (pH 7.5), 30 mM KCl, 2 mM MgCl₂, 1 mM EDTA, 1 mM dithioerythritol, 1 mM phenylmethylsulfonyl fluoride, 10 nM R1881, 15% glycerol, 1 μg poly(dI-dC)poly(dI-dC) and 1 μg BSA. Samples were resolved by electrophoresis on 5% TBE/polyacrylamide gels. The gels were dried and subjected to autoradiography.
A general note: A gel shift assay detects complexes by their altered migration in electrophoresis.

Data set [2] has as its target T1, Androgen receptor (AR), full-length. In words: EMSA; 10 nM R1881, 30 mM KCl, 2 mM MgCl2, pH 7.5, poly(dI-dC); abolished by 100-fold unlabeled wild-type competitor. To be noted: tags: none stated; cDNA from pSVAR0 in pBluescript II SK+, T7/wheat germ extract (Promega); chain copies: 2; label: 32P 5' end.
From the text: as §1

T1 sequence (P10275 whole entry, one chain of several): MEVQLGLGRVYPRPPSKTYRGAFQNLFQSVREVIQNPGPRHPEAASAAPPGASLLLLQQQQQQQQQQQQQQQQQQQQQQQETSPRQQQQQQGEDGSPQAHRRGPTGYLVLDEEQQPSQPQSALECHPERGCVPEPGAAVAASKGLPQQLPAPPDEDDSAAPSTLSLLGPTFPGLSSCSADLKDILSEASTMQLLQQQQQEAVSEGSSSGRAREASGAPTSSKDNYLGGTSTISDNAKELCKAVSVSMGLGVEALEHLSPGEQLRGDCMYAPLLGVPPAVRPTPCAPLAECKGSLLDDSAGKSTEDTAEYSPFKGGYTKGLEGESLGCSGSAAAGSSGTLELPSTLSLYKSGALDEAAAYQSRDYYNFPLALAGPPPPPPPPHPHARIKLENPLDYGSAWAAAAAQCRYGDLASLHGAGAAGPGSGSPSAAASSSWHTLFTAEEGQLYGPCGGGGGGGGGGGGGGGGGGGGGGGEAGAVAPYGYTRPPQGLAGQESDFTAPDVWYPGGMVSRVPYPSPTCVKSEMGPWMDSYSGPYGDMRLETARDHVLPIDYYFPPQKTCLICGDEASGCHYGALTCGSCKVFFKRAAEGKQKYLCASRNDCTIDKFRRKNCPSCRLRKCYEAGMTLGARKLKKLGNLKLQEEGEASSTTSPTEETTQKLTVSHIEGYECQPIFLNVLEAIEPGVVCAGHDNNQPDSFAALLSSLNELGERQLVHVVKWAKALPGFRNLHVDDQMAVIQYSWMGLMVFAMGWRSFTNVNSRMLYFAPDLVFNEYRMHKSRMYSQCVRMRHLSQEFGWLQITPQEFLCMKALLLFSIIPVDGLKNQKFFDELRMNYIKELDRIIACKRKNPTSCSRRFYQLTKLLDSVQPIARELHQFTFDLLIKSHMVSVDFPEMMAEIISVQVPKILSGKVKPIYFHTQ

B1: mutated ARE[-186] oligo (dsDNA)
DNA 1: GCAAGGTGTGGTCAACTATTAAA
DNA 2: TTTAATAGTTGACCACACCTTGC
For the molecule B1, the binding result in data set [1] was “no binding”.

B2: wild-type ARE[-186] TARP promoter oligo (dsDNA)
DNA 1: GCAAGGTGAGGTCAGTTCTTAAA
DNA 2: TTTAAGAACTGACCTCACCTTGC
As for B2, in data set [2], the binding result is “binds”.
